Target: ThBP24k (recombinant, no tag named) (Magnaporthe oryzae, UniProt G4NG01)
Assay: BLI
Settings: both partners purified

B1: OsPR5-His (natural protein)
chain: ATFTITNRCSFTVWPAATPVGGGVQLSPGQTWTINVPAGTSSGRVWGRTGCSFDGSGRGSCATGDCAGALSCTLSGQKPLTLAEFTIGGSQDFYDLSVIDGYNVAMSFSCSSGVTVTCRDSRCPDAYLFPEDNTKTHACSGNSNYQVVFCP
In the case of B1, the Kd is reported as 2.41 nM.

— doi:10.1101/2025.07.03.663104 (bioRxiv, 2025)
